The labels stand for the following.
B1: E3 ubiquitin-protein ligase NEDD4, residues 836 to 881; numbered along this chain, P46934 (parent)
chain: EIEQGFLPKGWEVRHAPNGRPFFIDHNTKTTTWEDPRLKIPAHLRG

± gives the uncertainty stated by the source.

The variants in the data set derive from B1. Put plainly: abundance fitness (aPCA) (normalised: wild type 0, dead -1); higher = more abundant; growth selection in yeast, the domain comes from the species named. The settings on record: Homo sapiens.
For G19Y, the abundance fitness is -0.828 ± 0.053.

Take G19A: the abundance fitness is -0.734 ± 0.1. With G19H, the abundance fitness was -0.496 ± 0.27. With E34G the figure was -0.51 ± 0.066; with E34D, -0.312 ± 0.11; with E34P, -1.08 ± 0.24. As to E34A, the abundance fitness was -0.182 ± 0.054. As for E34Q, the abundance fitness was -0.345 ± 0.11.

On to E34S, for which the abundance fitness is -0.163 ± 0.039.

For the variant E34K, the abundance fitness was -0.369 ± 0.11. Turning to E34T, the abundance fitness is -0.37 ± 0.088. In the case of E34H, the abundance fitness was -0.172 ± 0.041.

On to E34M, for which the abundance fitness is -0.054 ± 0.075. In the case of E34L, the abundance fitness was -0.155 ± 0.053. For the variant E34C, the abundance fitness was -0.268 ± 0.071.

For E34W, the abundance fitness is -0.306 ± 0.049.

For the variant E34V, the abundance fitness is -0.169 ± 0.047. As for E34Y, the abundance fitness was -0.272 ± 0.077. In the case of E34R, the abundance fitness is -0.307 ± 0.034. For the variant T28K, the abundance fitness is -0.251 ± 0.042. Consider T28I, for which the abundance fitness is -0.901 ± 0.16. With T28F the figure was -0.776 ± 0.14. In the case of T28S it was -0.201 ± 0.048.

Consider T28V, for which the abundance fitness was -0.78 ± 0.055. T28H: the abundance fitness is -0.338 ± 0.073. On to T28L, for which the abundance fitness is -0.341 ± 0.049.

In the case of T28E, the abundance fitness was -0.218 ± 0.069. With T28Y the figure was -0.548 ± 0.12. In the case of T28W it was -0.971 ± 0.071; in that of T28N, 0.035 ± 0.067; in that of T28A, -0.383 ± 0.055.

With T28D, the abundance fitness was -0.327 ± 0.091. With T28P the figure was -0.823 ± 0.066. T28M: the abundance fitness was -0.487 ± 0.038. As for T28G, the abundance fitness was -0.187 ± 0.041. D35L: the abundance fitness is -0.623 ± 0.055.

Turning to D35T, the abundance fitness is -0.84 ± 0.15. Take D35R: the abundance fitness was -0.554 ± 0.044. Regarding D35A, the abundance fitness was -0.216 ± 0.081. With D35N the figure was -0.979 ± 0.18; with D35S, -0.691 ± 0.067; with D35H, -0.418 ± 0.14. As to D35Y, the abundance fitness was -0.906 ± 0.24. On to D35E, for which the abundance fitness is -0.795 ± 0.11. With D35V the figure was -0.762 ± 0.085. With D35W the figure was -0.849 ± 0.043; with D35G, -0.593 ± 0.048; with D35I, -0.895 ± 0.14. In the case of D35M it was -0.734 ± 0.16. D35K: the abundance fitness was -0.814 ± 0.078. With D35P the figure was -0.582 ± 0.12; with I24T, -0.701 ± 0.17; with I24W, -0.356 ± 0.058. Consider I24Y, for which the abundance fitness amounted to 0.137 ± 0.16.

On to I24G, for which the abundance fitness was -0.98 ± 0.12.

Regarding I24P, the abundance fitness was -0.929 ± 0.19. Consider I24Q, for which the abundance fitness is -0.947 ± 0.11.

As to I24C, the abundance fitness was -0.402 ± 0.071. In the case of I24L it was 0.003 ± 0.083; in that of I24H, -0.523 ± 0.079; in that of I24A, -0.818 ± 0.14.

Turning to I24R, the abundance fitness was -0.609 ± 0.067.

For I24F, the abundance fitness is -0.522 ± 0.21. With I24N the figure was -0.715 ± 0.1; with I24S, -1.09 ± 0.2. Regarding I24E, the abundance fitness is -0.849 ± 0.16. For D25H, the abundance fitness was -0.394 ± 0.16. On to D25M, for which the abundance fitness was -1.15 ± 0.25. As for D25Y, the abundance fitness was -0.768 ± 0.21.

As to D25W, the abundance fitness is -0.86 ± 0.17. With D25F the figure was -1.04 ± 0.22; with D25Q, -0.951 ± 0.25; with D25R, -0.682 ± 0.067. Regarding D25A, the abundance fitness was -0.848 ± 0.049. For D25N, the abundance fitness is -0.261 ± 0.091. Turning to D25C, the abundance fitness is -0.447 ± 0.046.

In the case of D25V, the abundance fitness is -0.981 ± 0.061.

With D25I, the abundance fitness is -0.792 ± 0.34. In the case of D25G, the abundance fitness was -0.836 ± 0.045. In the case of D25E, the abundance fitness was -0.351 ± 0.13. With D25S the figure was -0.84 ± 0.061. With D25L the figure was -0.922 ± 0.099. For the variant D25T, the abundance fitness was -0.94 ± 0.23. For the variant P21D, the abundance fitness was -0.445 ± 0.039.

On to P21C, for which the abundance fitness is -0.084 ± 0.06. P21Y: the abundance fitness came out at 0.055 ± 0.064.

On to P21A, for which the abundance fitness is -0.055 ± 0.04.

Consider P21F, for which the abundance fitness is -0.601 ± 0.1. Consider P21K, for which the abundance fitness was found to be 0.027 ± 0.051.

In the case of P21R, the abundance fitness was -0.109 ± 0.038. With P21N, the abundance fitness was -0.487 ± 0.11.

On to P21V, for which the abundance fitness is -0.149 ± 0.057. For P21L, the abundance fitness was -0.131 ± 0.036. Regarding P21Q, the abundance fitness was -0.058 ± 0.062. On to P21S, for which the abundance fitness is -0.233 ± 0.046. As to P21T, the abundance fitness was -0.451 ± 0.073. P21I: the abundance fitness worked out at 0.033 ± 0.061. With P21M the figure was -0.218 ± 0.057; with P21E, -0.149 ± 0.059. With P21W, the abundance fitness was -0.402 ± 0.04. For the variant P36H, the abundance fitness was -0.71 ± 0.18. Regarding P36M, the abundance fitness was -1.06 ± 0.16. As for P36L, the abundance fitness is -1.01 ± 0.064. In the case of P36E it was -0.283 ± 0.11. P36K: the abundance fitness was -0.846 ± 0.079. Regarding P36C, the abundance fitness was -0.958 ± 0.15. Turning to P36N, the abundance fitness is -0.818 ± 0.21. As to P36V, the abundance fitness was -0.96 ± 0.1. In the case of P36Y it was -0.713 ± 0.12; in that of P36Q, -1.03 ± 0.31; in that of P36S, -1.09 ± 0.16.

P36G: the abundance fitness was -0.927 ± 0.086. For P36A, the abundance fitness is -0.629 ± 0.06. Take P36F: the abundance fitness is -1.04 ± 0.34. With P36D, the abundance fitness is -0.893 ± 0.22. Consider P36W, for which the abundance fitness was -0.954 ± 0.13. As to H26T, the abundance fitness was -0.357 ± 0.079. Turning to H26I, the abundance fitness is -0.078 ± 0.1. On to H26F, for which the abundance fitness is -0.209 ± 0.098. With H26E, the abundance fitness was -0.591 ± 0.056.

Take H26Y: the abundance fitness is -0.749 ± 0.16. With H26A the figure was -0.69 ± 0.05.

As for H26K, the abundance fitness is -0.342 ± 0.087. For H26D, the abundance fitness was -0.515 ± 0.062. On to H26W, for which the abundance fitness is -0.327 ± 0.062.

With H26V, the abundance fitness is -0.423 ± 0.038. As for H26R, the abundance fitness is -0.45 ± 0.037. As for H26L, the abundance fitness is -0.507 ± 0.05. With H26M, the abundance fitness was -0.262 ± 0.053. Turning to H26N, the abundance fitness was -0.449 ± 0.12. Take H26G: the abundance fitness is -0.501 ± 0.036.

Regarding H26S, the abundance fitness was -0.47 ± 0.051.

Consider H26Q, for which the abundance fitness was -0.381 ± 0.043. Take H26C: the abundance fitness was -0.388 ± 0.052. In the case of R37V, the abundance fitness was -0.597 ± 0.044. On to R37I, for which the abundance fitness was -0.75 ± 0.1. On to R37S, for which the abundance fitness was -0.472 ± 0.049.

Regarding R37P, the abundance fitness is -0.867 ± 0.12. Consider R37A, for which the abundance fitness was -0.567 ± 0.056. With R37E the figure was -0.752 ± 0.17. In the case of R37F, the abundance fitness is -0.672 ± 0.14. Consider R37Q, for which the abundance fitness is -0.665 ± 0.13.

On to R37T, for which the abundance fitness was -0.256 ± 0.055. Consider R37W, for which the abundance fitness was -0.812 ± 0.11. In the case of R37G, the abundance fitness is -0.586 ± 0.042. Regarding R37L, the abundance fitness was -0.399 ± 0.076. With R37H, the abundance fitness was -0.268 ± 0.072.

Turning to R37C, the abundance fitness was -0.611 ± 0.064.

With R37M, the abundance fitness is -0.364 ± 0.075.

As for R37Y, the abundance fitness is -0.784 ± 0.076.

Consider R37K, for which the abundance fitness is -0.758 ± 0.11.

For the variant F23N, the abundance fitness is -0.79 ± 0.15.

For the variant F23A, the abundance fitness is -0.416 ± 0.088. In the case of F23M it was -0.751 ± 0.12. With F23G the figure was -0.566 ± 0.049; with F23T, -0.883 ± 0.14. For the variant F23K, the abundance fitness was -0.47 ± 0.07. For the variant F23I, the abundance fitness is -0.896 ± 0.13. Regarding F23H, the abundance fitness was -0.656 ± 0.12. Regarding F23Y, the abundance fitness was -0.27 ± 0.076. With F23Q, the abundance fitness was -0.824 ± 0.1.

As to F23S, the abundance fitness was -0.856 ± 0.099. For the variant F23D, the abundance fitness is -0.679 ± 0.066.

Regarding F23L, the abundance fitness is -0.633 ± 0.059.

With F23W, the abundance fitness is -0.147 ± 0.049. F23C: the abundance fitness is -0.966 ± 0.12. Consider F23V, for which the abundance fitness is -0.651 ± 0.057.
